# Starred links: 1 amine or outer side, 2 acyl side, 3 side chain; linkers in the order of their positions; H or OH if unused. Non-standard residues stand in square brackets, D forms with d. Groups on a side chain read outwards from the residue. Primed or numbered codes have the meaning given here. No end group written: not given here. *: point of attachment. γGlu = O=C(O)[C@H](CCC(=O)[*:2])N[*:1]; Stearoyl = CCCCCCCCCCCCCCCCCC(=O)*; Palmitoyl = CCCCCCCCCCCCCCCC(=O)*; αMeF = C[C@](N)(Cc1ccccc1)C(=O)O; αMeK = C[C@](N)(CCCCN)C(=O)O; αMeS = C[C@](N)(CO)C(=O)O; PEG2′ = not defined here; Aib = CC(C)(N)C(=O)O
# T1: glucose-dependent insulinotropic peptide (gastric inhibitory polypeptide) receptor (GIPR) (human, UniProt P48546 22-466)
# T1 sequence (looked up): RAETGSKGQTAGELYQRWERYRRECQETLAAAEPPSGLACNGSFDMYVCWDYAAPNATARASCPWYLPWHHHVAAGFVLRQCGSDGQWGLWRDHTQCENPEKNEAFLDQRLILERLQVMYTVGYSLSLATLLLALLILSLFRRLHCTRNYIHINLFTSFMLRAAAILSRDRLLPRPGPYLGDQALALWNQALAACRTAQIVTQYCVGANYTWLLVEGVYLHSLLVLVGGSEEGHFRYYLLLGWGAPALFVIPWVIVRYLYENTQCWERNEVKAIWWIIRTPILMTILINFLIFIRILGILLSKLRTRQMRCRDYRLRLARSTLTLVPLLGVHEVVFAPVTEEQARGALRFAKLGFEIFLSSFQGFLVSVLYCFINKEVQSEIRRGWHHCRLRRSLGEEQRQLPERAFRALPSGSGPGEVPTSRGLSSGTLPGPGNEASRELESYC
# B1: SEQ ID NO 97 (peptide)
# peptide: H[Aib]K([γGlu-Palmitoyl])GS[αMeF]TSDV[αMeS]S[αMeF]LEGEAA[αMeK]E[αMeF]IA[αMeF]VV[αMeK]GG-NH2
# modifications: N-terminus assumed
# SMILES: CCCCCCCCCCCCCCCC(=O)N[C@@H](CCC(=O)NCCCC[C@H](NC(=O)C(C)(C)NC(=O)[C@@H](N)Cc1c[nH]cn1)C(=O)NCC(=O)N[C@@H](CO)C(=O)N[C@@](C)(Cc1ccccc1)C(=O)N[C@H](C(=O)N[C@@H](CO)C(=O)N[C@@H](CC(=O)O)C(=O)N[C@H](C(=O)N[C@@](C)(CO)C(=O)N[C@@H](CO)C(=O)N[C@@](C)(Cc1ccccc1)C(=O)N[C@@H](CC(C)C)C(=O)N[C@@H](CCC(=O)O)C(=O)NCC(=O)N[C@@H](CCC(=O)O)C(=O)N[C@@H](C)C(=O)N[C@@H](C)C(=O)N[C@@](C)(CCCCN)C(=O)N[C@@H](CCC(=O)O)C(=O)N[C@@](C)(Cc1ccccc1)C(=O)N[C@H](C(=O)N[C@@H](C)C(=O)N[C@@](C)(Cc1ccccc1)C(=O)N[C@H](C(=O)N[C@H](C(=O)N[C@@](C)(CCCCN)C(=O)NCC(=O)NCC(N)=O)C(C)C)C(C)C)[C@@H](C)CC)C(C)C)[C@@H](C)O)C(=O)O
# B2: SEQ ID NO 95 (peptide)
# peptide: H[Aib]EGK([γGlu-Palmitoyl])[αMeF]TSDV[αMeS]S[αMeF]LEGEAA[αMeK]E[αMeF]IA[αMeF]VV[αMeK]GG-NH2
# modifications: N-terminus assumed
# SMILES: CCCCCCCCCCCCCCCC(=O)N[C@@H](CCC(=O)NCCCC[C@H](NC(=O)CNC(=O)[C@H](CCC(=O)O)NC(=O)C(C)(C)NC(=O)[C@@H](N)Cc1c[nH]cn1)C(=O)N[C@@](C)(Cc1ccccc1)C(=O)N[C@H](C(=O)N[C@@H](CO)C(=O)N[C@@H](CC(=O)O)C(=O)N[C@H](C(=O)N[C@@](C)(CO)C(=O)N[C@@H](CO)C(=O)N[C@@](C)(Cc1ccccc1)C(=O)N[C@@H](CC(C)C)C(=O)N[C@@H](CCC(=O)O)C(=O)NCC(=O)N[C@@H](CCC(=O)O)C(=O)N[C@@H](C)C(=O)N[C@@H](C)C(=O)N[C@@](C)(CCCCN)C(=O)N[C@@H](CCC(=O)O)C(=O)N[C@@](C)(Cc1ccccc1)C(=O)N[C@H](C(=O)N[C@@H](C)C(=O)N[C@@](C)(Cc1ccccc1)C(=O)N[C@H](C(=O)N[C@H](C(=O)N[C@@](C)(CCCCN)C(=O)NCC(=O)NCC(N)=O)C(C)C)C(C)C)[C@@H](C)CC)C(C)C)[C@@H](C)O)C(=O)O
# Target: T1, glucose-dependent insulinotropic …
# Assay: cell-based or functional assay
cAMP Primary assay EC50 GIP-R [nM],cAMP Primary assay EC50 GIP-R (2nd) [nM],Binder
28,28,B1
28,28,B2
25,25.4,H[Aib]EGS[αMeF]TSDV[αMeS]S[αMeF]LEGEAA[αMeK]K([PEG2′-PEG2′-γGlu-Stearoyl])[αMeF]IA[αMeF]VV[αMeK]GG-NH2 [SEQ ID NO 108]
25,24.9,H[Aib]EGS[αMeF]TSDV[αMeS]S[αMeF]LEGEAA[αMeK]E[αMeF]IA[αMeF]VV[αMeK]GK([PEG2′-PEG2′-γGlu-Stearoyl])-NH2 [SEQ ID NO 99]
25,25.2,H[Aib]EGS[αMeF]TSDV[αMeS]S[αMeF]LEGEAA[αMeK]E[αMeF]IA[αMeF]K([PEG2′-PEG2′-γGlu-Stearoyl])V[αMeK]GG-NH2 [SEQ ID NO 103]
26,25.6,H[Aib]EGS[αMeF]TSDV[αMeS]S[αMeF]LEGEAA[αMeK]E[αMeF]IAK([PEG2′-PEG2′-γGlu-Stearoyl])VV[αMeK]GG-NH2 [SEQ ID NO 104]

# Target: GLP-1 receptor (GLP-1R) (human, UniProt P43220 24-463)
# Assay: cell-based or functional assay
cAMP Mean pM GLP-1R [pM],cAMP Primary assay EC50 GLP-1R n1 [nM],cAMP Primary assay EC50 GLP-1R n2 [nM],Binder
27800,28,28,B1
224,0.26,0.19,B2
4,0.0038,0.00346,H[Aib]EGS[αMeF]TSDV[αMeS]S[αMeF]LEGEAA[αMeK]K([PEG2′-PEG2′-γGlu-Stearoyl])[αMeF]IA[αMeF]VV[αMeK]GG-NH2 [SEQ ID NO 108]
54,0.058,0.0493,H[Aib]EGS[αMeF]TSDV[αMeS]S[αMeF]LEGEAA[αMeK]E[αMeF]IA[αMeF]VV[αMeK]GK([PEG2′-PEG2′-γGlu-Stearoyl])-NH2 [SEQ ID NO 99]
5,0.0047,0.00456,H[Aib]EGS[αMeF]TSDV[αMeS]S[αMeF]LEGEAA[αMeK]E[αMeF]IA[αMeF]K([PEG2′-PEG2′-γGlu-Stearoyl])V[αMeK]GG-NH2 [SEQ ID NO 103]
5,0.0059,0.00511,H[Aib]EGS[αMeF]TSDV[αMeS]S[αMeF]LEGEAA[αMeK]E[αMeF]IAK([PEG2′-PEG2′-γGlu-Stearoyl])VV[αMeK]GG-NH2 [SEQ ID NO 104]

# Target: glucagon receptor (GCGR) (human, UniProt P47871 26-477)
# Assay: cell-based or functional assay
# glucagon receptor (GCGR), sequence (P47871 26-477): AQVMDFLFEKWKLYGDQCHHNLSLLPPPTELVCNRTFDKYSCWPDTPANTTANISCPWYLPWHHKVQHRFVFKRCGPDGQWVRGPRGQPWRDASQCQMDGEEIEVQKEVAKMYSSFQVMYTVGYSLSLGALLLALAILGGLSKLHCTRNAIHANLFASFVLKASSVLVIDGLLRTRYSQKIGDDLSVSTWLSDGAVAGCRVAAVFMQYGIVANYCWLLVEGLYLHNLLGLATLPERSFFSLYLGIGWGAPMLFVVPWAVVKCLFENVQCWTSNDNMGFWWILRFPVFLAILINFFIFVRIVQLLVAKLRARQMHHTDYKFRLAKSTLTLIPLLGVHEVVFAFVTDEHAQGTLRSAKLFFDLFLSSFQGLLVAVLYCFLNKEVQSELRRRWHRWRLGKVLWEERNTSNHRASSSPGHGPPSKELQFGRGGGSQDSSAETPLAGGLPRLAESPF
cAMP Primary assay EC50 Gluc-R [nM],cAMP Primary assay EC50 Gluc-R (2nd) [nM],Binder
28,28,B1
28,28,B2
25,25.4,H[Aib]EGS[αMeF]TSDV[αMeS]S[αMeF]LEGEAA[αMeK]K([PEG2′-PEG2′-γGlu-Stearoyl])[αMeF]IA[αMeF]VV[αMeK]GG-NH2 [SEQ ID NO 108]
25,24.9,H[Aib]EGS[αMeF]TSDV[αMeS]S[αMeF]LEGEAA[αMeK]E[αMeF]IA[αMeF]VV[αMeK]GK([PEG2′-PEG2′-γGlu-Stearoyl])-NH2 [SEQ ID NO 99]
25,25.2,H[Aib]EGS[αMeF]TSDV[αMeS]S[αMeF]LEGEAA[αMeK]E[αMeF]IA[αMeF]K([PEG2′-PEG2′-γGlu-Stearoyl])V[αMeK]GG-NH2 [SEQ ID NO 103]
26,25.6,H[Aib]EGS[αMeF]TSDV[αMeS]S[αMeF]LEGEAA[αMeK]E[αMeF]IAK([PEG2′-PEG2′-γGlu-Stearoyl])VV[αMeK]GG-NH2 [SEQ ID NO 104]

# Reference: patent US20200079833A1 (AstraZeneca / MedImmune, published 2020)
